B1: TPR t1 (parent)
chain: GACCAAUCUGCCCUCAGAGCUCGAGAACAUCUUCGGAUGCAGAGGAGGCAGGCUUCGGUGGCGCGAUAGCGCCAACGUCCUCAACCUCCAAUGCAUCCCACCACAUGAUGAUGCCUGAAGAGCCUUGGUUUUUUG

Variants of: B1
Test: polymerase ribozyme fitness, log enrichment relative to wild type (log ratio); higher = more active; in vitro selection for triplet polymerase activity
Outline: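 Mutant libraries of each subunit of a heterodimeric triplet polymerase ribozyme were built by PCR and transcribed. Each library went through one round of in vitro selection in triplicate: annealing with biotinylated primer, partner subunit and triplets, frozen incubation at −7 °C, gel excision of extended constructs, streptavidin-bead capture and RT-PCR. Input and output libraries were Illumina-sequenced; only genotypes with ≥10 input reads and ≥1 read per output were kept. Fitness is log2(genotype enrichment/wild-type enrichment), using inverse-variance-weighted replicate averages.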

Row | Variant | polymerase ribozyme fitness (log ratio)
1 | C123A | 0.556
2 | C11G U131G | -0.902
3 | A74C C80A C101G C123A | -4.26
4 | C11U A84U C89U | -1.61
5 | C11A G45U C64A U78A A95C G113U | -7.43
6 | U55G C56A U106A | -1.04
7 | A24G C56A G60U A83C U133A | -2.54
8 | C12A C53A A108G | -2.7
9 | A26C U55G | -5.98
10 | U30C G63A C124G | -3.09
11 | C11U G17A A46G G57C C72U C115A G120C U134A | -0.588
12 | G36C G63U A95C A111U | -6.67
13 | G48A G63U A121U | 0.283
14 | A2C G61C | -3.02
15 | G42U G71A C86U U96A C97A U116G | -6.66
16 | C3U A29G G48C C73G C79G C101U | -5.51
17 | C49U A121U | 1.09
18 | A50U U106G | -2.78
19 | U7G U21C U59G G63A U116G C124G U131A | -5.19
20 | C12U U81G | -2.24
21 | C13G A111G C115U | -4.46
22 | C15A G63A G127C | -4.4
23 | C34U G52U | -5.84
24 | U14A A111C C115A | -5.18

Row | Variant | polymerase ribozyme fitness (log ratio)
25 | A66U U130A | -1.42
26 | A27U C53A G71U C88A G117C | -6.86
27 | C28U A29U G45C G61A | -3.76
28 | C12A C53G U92C | -1.45
29 | G44U G61U G110U | -1.97
30 | G44A G51A C76A U92A G117C | -6.37
31 | G44U C89A | 0.219
32 | C40U C72G G117U U130A | -4.89
33 | A50U G69U C80G C98U G113A | -3.31
34 | A2U U130C | -0.66
35 | C8G G45U | -1.39
36 | A111C G117A | -2
37 | U55G U109A | -5.03
38 | C34U A68G C70U | -6.49
39 | C11A G42A U54A C64U U129C | -4.74
40 | C22U G93A | -3.97
41 | C8U G117C | -3.02
42 | C3U C13A G39U C53A C56U G120U | -0.266
43 | G10C C49A G51C G57C C72U | -4.25
44 | C12A A26U G44C C102U C123G | -7.51
45 | G52U C53U C56U G93U U109G | -6.55
46 | U59A U126C | -1.31
47 | C56G G93C | -1.86
48 | C8A C124U | 1.95

Row | Variant | polymerase ribozyme fitness (log ratio)
49 | C49G G77U U78A C85A | -1.63
50 | A18U U32A C56A A105C G120C G122A C124A | -4.84
51 | C8A C12G C64U G110U | -0.685
52 | C8G C12U G42C G93A | -2.42
53 | C97G C114U | -5.14
54 | A26C G57U | -6.49
55 | C13U A26U C40U | -2.81
56 | G36A G42A U54G C72U A75U | -2.79
57 | C64A U106C | -6.82
58 | C12G U32A | -3.25
59 | G48A G69U C98G U125A U131C | -3.58
60 | C97U A118U | -2.1
61 | C49A C72A A83C C101A A121U | 0.741
62 | U87A A111U | -2.69
63 | C13A G60U | -1.81
64 | U54A G61U U96C C99A | -5.82
65 | C11G A111G | 1.17
66 | C73A U92C | -0.541
67 | C8G A41G U78G G122U | -0.0287
68 | C8A C12U | -0.964
69 | C8U C12G G42U A74U C88A | -1.72
70 | G63C C73G C115G | -5.56
71 | A18C C53G C76U | -3.42
72 | G60C U125A | -0.729

Row | Variant | polymerase ribozyme fitness (log ratio)
73 | A50C C72U G135A | -1.52
74 | C72A C76G U112G A119G | -0.512
75 | C12A C82G | -1.17
76 | C22A A84U | -5.54
77 | C12U C70U G71U U112A C123G | 0.00675
78 | A83C U112G | -1.81
79 | U78A C104A C114A | -5.24
80 | G52C C56U | -0.823
81 | G69U C80U C102U C104U G120C | 1.02
82 | G10A G61C A83U | -2.03
83 | G110C G127U | -2.52
84 | A5G C13U A46U C56A | -0.813
85 | A27C U112C | -1.2
86 | U9G C12A G42C G61C C115U | -3.63
87 | C82A A84C G110C | -4.7
88 | C15G C53U C85G | -4.35
89 | A18C C56A | -3.08
90 | C70G U116A | -4.95
91 | G10A A43G A119U | -1.73
92 | G63C C97U | -0.711
93 | C12G G52U C53G G60U | -0.409
94 | C102U U132C | -1.91
95 | U7A U55A U87C | 0.229
96 | C8U C12U G57C A90U | -0.755

Row | Variant | polymerase ribozyme fitness (log ratio)
97 | G57A C73G G127C | -2.37
98 | C13A G52U U55C | -2.87
99 | A41U G61C | -3.99
100 | C40U A41U C72U | -1.91
101 | G63A C82U | -1.51
102 | A16U A95C | -2.59
103 | A2G C12A C85A G113C | -5.2
104 | C13U G39U A41G C72U U96G G117A | -3.31
105 | U38A G57A U116A G120A | -4.1
106 | G77A G93A A100G U112C U131A | -2.12
107 | A5U A37G | 0.0705
108 | C53G U81C U106A | -4.71
109 | A46U A74U C82A | -1.61
110 | C15U C70U | -1.7
111 | G45U A75G U106C A119U A121C U130A | -0.0532
112 | C13U A26U C40A U112A | -4.39
113 | C53G C70U C86U A119G | -0.0477
114 | C13U G63A G77A C89U A90U G113A G122A U125A G127C | -5.73
115 | A108G G135U | -2.4
116 | U112A C123U | 1.03
117 | U9A C12U | -0.242
118 | C13U A50U G77C A121G C123U C124U G128U U131C | 0.387
119 | C49A C73G U106G U130C | -2.23
120 | U78C A90C | -0.796

Row | Variant | polymerase ribozyme fitness (log ratio)
121 | G63U C86U U112A | -0.646
122 | G17A U55A C72A | -3.74
123 | C3U G69C | -1.44
124 | G42A C72G | -2.43
125 | C8G U9C A16G A24U C28U U92C U96A C99A A111U G120C | -6.18
126 | G47U C101A | -2.91
127 | C8G A50U C53G C99U C104A C115A A121C | -7
128 | A43U U55A C70G U112A G113A | -3.91
129 | A50U C62U U109A A111C G120U A121G | -7.17
130 | G127C G128A | -1.79
131 | G63U U116A | -3.57
132 | G77U G120C | 0.43
133 | A46C U87C C89G U92C | -2.75
134 | A46U C62G G110A | -5.8
135 | C13A C85U C102U | -4.16
136 | G61U C86U | -0.781
137 | C79U A84G | -0.834
138 | A2U G51U U59G A84C | -4.9
139 | G47U G48A A121U | 1.01
140 | C62U C73U U112G | 0.712
141 | A2U C73A G120C | -2.28
142 | C11G A95U U129C | -1.01
143 | U54C G57U C115G | -1.53
144 | A46C G63A U96A | -2.58

Row | Variant | polymerase ribozyme fitness (log ratio)
145 | A29G C31A C56G C99A A121G U129C | -7.31
146 | C53G C64U | -0.328
147 | C40A G60A G61A U112A | -3
148 | A6C A29U A91C | -4.88
149 | U9C G60A C102G G110C G128U | -7.66
150 | C101U G128C | -2.13
151 | A50U G65A U78G G120A U126A U129G U130A | -7.26
152 | C72A C94A | -0.415
153 | C40U G63A C102G C114G G122A | -8.78
154 | A29C C56G | -3.25
155 | G61A G135U | -0.801
156 | C99U U133G | -2.59
157 | G60A C115A G117A | -4.99
158 | U9A C53A C86U | 0.27
159 | C70U C114G | -3.48
160 | U78G U87C | 0.411
161 | C53U A68G | -2.76
162 | G42C G47U A108C G110A U112A | -7.49
163 | A6U U92A | -2.82
164 | G61A A66U U78C A118G | -1.83
165 | C12A G36C G60A | -1.66
166 | U21G G61C | -3.98
167 | C40A C56U A119U G122A | -1.84

— the RNAGym collection of RNA variant scans (doi:10.1073/pnas.2313332121)
